From patent US10183971B2, “SAA-domain-specific antibodies and peptide antagonists and use thereof to treat inflammatory diseases” (The Feinstein Institute For Medical Research, priority 2013, dated 2019)
Like-named read-outs stand apart in the source and are kept apart here.

B1: KC: inflammatory mediator, sepsis surrogate marker (protein, UniProt P12850 25-96, looked up)
Growth-regulated alpha protein: APIANELRCQCLQTMAGIHLKNIQSLKVLPSGPHCTQTEVIATLKNGREACLDPEAPLVQKIVQKMLKGVPK
B2: human SAA: human serum amyloid A, recombinant protein (Cat. No. 300-13, PeproTech) (protein)
chain: RSFFSFLGEAFDGARDMWRAYSDMREANYIGSDKYFHARGNYDAAKRGPGGAWAAEVITDARENIQRFFGHGAEDSLADQAANEWGRSGKDPNHFRPAGLPEKY
B3: human SAA1: human SAA1 (Cat. No. 300-53, PeproTech) (protein)
chain: B2 chain

What was measured:
HMGB1 release = HMGB1 release in vitro by inflammatory mediators (data not shown); assay type: cell-based
murine macrophages = assay: HMGB1 release in murine macrophage cultures (Western blots); assay type: cell-based; conditions: 1-10 μg/ml, 16 h
Protocol: (§1) FIG. 4A-4C. […] A, Amino acid sequence of human and murine SAAs (SEQ ID NOS:19-23, top to bottom). B, Western blots of human SAA and SAA1. Note that the anti-HMGB1 IgGs paradoxically cross-reacted with huSAA, but not huSAA1. […] Murine macrophages and human monocytes were stimulated with huSAA or huSAA1 for 16 h, and extracellular HMGB 1 levels were determined by Western blots.
(§2) Overall, there is a >95-98% amino acid sequence homology between members of the human or murine SAA families, and a >75% identity across human and murine families (FIG. 4A), making it seemingly difficult to distinguish between different SAA members by immunoassays. Indeed, the polyclonal antibodies raised against human SAA cross-reacted with both human SAA and SAA1 on Western blots (FIG. 4B, bottom panel). Intriguingly, our rabbit anti-HMGB1 IgGs “specifically” recognized human SAA, but not SAA1, on Western blots (FIG. 4B), implicating a possibility of selectively immunodetecting human SAA with appropriate antibodies.

human monocytes = assay: HMGB1 release in human monocyte cultures (Western blots); assay type: cell-based; conditions: 1-10 μg/ml, 16 h
Protocol: as §1, §2

Balb/C mice = assay type: in vivo; conditions: LPS 5 mg/kg i.p. in combination with SAA 0.8 mg/kg

Molecule | induction of HMGB1 release in vitro (HMGB1 release) | induction of HMGB1 release (murine macrophages) | induction of HMGB1 release (murine macrophages; listed as HuSAA) | induction of HMGB1 release (human monocytes) | induction of HMGB1 release (human monocytes; listed as HuSAA) | effect on LPS-induced animal lethality (Balb/C mice; listed as Recombinant SAA protein) | effect on LPS-induced animal lethality (Balb/C mice; listed as SAA)
B1 | unable to induce HMGB1 release | – | – | – | – | – | –
B2 | – | effectively induced HMGB1 release | induced HMGB1 release | effectively induced HMGB1 release | induced HMGB1 release | dramatically exacerbated | exacerbated LPS-induced animal lethality
B3 | – | barely triggered HMGB1 release | – | barely triggered HMGB1 release | – | – | –
